One substance from publication PMC8192573 can be followed below.

In general, stoichiometry N refers to a count of units in the complex or per binding partner.

The assay deals with OsBOR3_(∆1–642) (Oryza sativa). Kind of assay: cryo-EM structure; OsBOR3 (1 mg/mL) in 20 mM Tris (pH 7.5), 150 mM NaCl, 0.75x CMC LMNG on Quantifoil grids; 116,140 particles; 3D refinement with C2 symmetry imposed; 5-6 Å.

OsBOR3_(∆1–642) (domain or fragment) yielded a stoichiometry N of 2.
